Columns and labels:
[1] = target: CH505 T/F UFO Env trimer (HIV-1 (subject CH505)); assay: SEC; lectin-purified Env proteins separated on a Superdex 200 Increase 10/300 GL column
[2] = target: CH505 T/F UFO Env trimer (HIV-1 (subject CH505)); assay: native gel or EMSA; blue native gel (NativePAGE 3-12% Bis-Tris) of the fractions collected from SEC

For CH505 T/F UFO Env trimer, the stoichiometry N [1] was 3 and the stoichiometry N [2] was 3.
